B1: Pegcrisantaspase: mPEG-r-crisantaspase conjugate: Erwinia chrysanthemi L-asparaginase conjugated to polyethylene glycol, prepared as set forth in U.S. Pat. No. 9,920,311 (conjugate, UniProt P06608 22-348, looked up)
L-asparaginase: ADKLPNIVILATGGTIAGSAATGTQTTGYKAGALGVDTLINAVPEVKKLANVKGEQFSNMASENMTGDVVLKLSQRVNELLARDDVDGVVITHGTDTVEESAYFLHLTVKSDKPVVFVAAMRPATAISADGPMNLLEAVRVAGDKQSRGRGVMVVLNDRIGSARYITKTNASTLDTFKANEEGYLGVIIGNRIYYQNRIDKLHTTRSVFDVRGLTSLPKVDILYGYQDDPEYLYDAAIQHGVKGIVYAGMGAGSVSVRGIAGMRKAMEKGVVVIRSTRTGNGIVPPDEELPGLVSDSLNPAHARILLMLALTRTSDPKVIQEYFHTY
modifications: mPEG conjugate
B2: Oncaspar: E. coli L-asparaginase modified at multiple lysine residues using 5 kDa mPEG-succinimidyl succinate (conjugate, UniProt P00805 23-348, looked up)
L-asparaginase 2: LPNITILATGGTIAGGGDSATKSNYTVGKVGVENLVNAVPQLKDIANVKGEQVVNIGSQDMNDNVWLTLAKKINTDCDKTDGFVITHGTDTMEETAYFLDLTVKCDKPVVMVGAMRPSTSMSADGPFNLYNAVVTAADKASANRGVLVVMNDTVLDGRDVTKTNTTDVATFKSVNYGPLGYIHNGKIDYQRTPARKHTSDTPFDVSKLNELPKVGIVYNYANASDLPAKALVDAGYDGIVSAGVGNGNLYKSVFDTLATAAKTGTAVVRSSRVPTGATTQDAEVDDAKYGFVASGTLNPQKARVLLQLALTQTKDPQQIQQIFNQY
modifications: 5 kDa mPEG-succinimidyl succinate on lysines
notes: E. coli L-asparaginase modified at multiple lysine residues using 5 kDa mPEG-succinimidyl succinate
B3: Erwinia L-asparaginase: L-asparaginase protein from Erwinia chrysanthemi, named crisantaspase, marketed as Erwinase (protein, UniProt P06608 22-348, looked up)
L-asparaginase: B1 L-asparaginase

How the values were obtained:
[1] = In vivo test of mPEG-r-crisantaspase with cytarabine and daunorubicin (tolerability, body weight); conditions: mice; PegC 5 & 50 IU/kg as single agent and with cytarabine 50 mg/kg and daunorubicin 1 mg/kg
[2] = test system: HL-60 cell line; test: Combination (synergy) cell proliferation assay with pegcrisantaspase; assay type: cell-based
Procedure: Plate preparation. The stocks of the mixtures and single agents were diluted in DMSO or 0.9% sodium chloride to generate a 7-points dose-response series. After further 31.6 times dilution in 20 mM sterile Hepes buffer pH 7.4 (reference compounds) or medium (pegcrisantaspase), 5 μl of pegcrisantaspase solution, and 5 μl of reference compound was added to 40 μl pre-plated cells in duplicate in a 384-well assay plate. The final DMSO concentration during incubation was 0.4% in all wells.
Cell proliferation assay. A cell assay stock was thawed and diluted in appropriate medium and dispensed in a 384-well plate, depending on the cell line used, at a concentration of 800-3200 cells per well in […]: i.e., DB: 800 cells per well; RL: 1000 cells per well; MV-4-11: 1600 cells per well; KG-1, HL-60 and HT 3200 cells per well. For each used cell line the cell density was optimized previously. The margins of the plate were filled with phosphate-buffered saline. Plated cells were incubated in a humidified atmosphere of 5% CO2 at 37° C. After 24 hours, 5 μl of pegcrisantaspase solution, and 5 μl of reference compound was added, and plates were further incubated for another 72 hours. After 72 hours, plates were cooled in 30 minutes to room temperature and 25 μl of ATPlite 1Step™ (PerkinElmer) solution was added to each well, and subsequently shaken for 2 minutes. After 5 minutes of incubation in the dark at room temperature, the luminescence was recorded on an Envision multimode reader (PerkinElmer).
Controls: t=0 signal. On a parallel plate, 40 μl cells were dispensed in quadruplicate and incubated in a humidified atmosphere of 5% CO2 at 37° C. After 24 hours, plates were cooled to room temperature in 30 minutes. 5 μl DMSO-containing Hepes buffer, 5 μl 0.9% sodium chloride-containing medium and 25 μl ATPlite 1Step™ solution were added and subsequently mixed for 2 minutes. Luminescence was measured after 10 minute incubation (=luminescencet=0) in the dark.
(§1) Cell growth control. The cellular doubling times of all cell lines are calculated from the t=0 hours and t=end growth signals of the untreated cells. If the doubling time is out of specification (0.5-2.0 times deviating from historic average) the assay is invalidated.
Maximum signals. On each 384-well plate, the maximum luminescence was recorded after incubation for 72 hours without compound in the presence of 0.4% DMSO. All equivalent wells (usually 14) were averaged. This average is defined as: luminescenceuntreated,t=72h. Dose response curves. Accurate single agent IC50s are needed for combination analysis. For each single agent its dose-response signal was fitted by a 4-parameter logistics curve using XL-fit 5 (IDBS software):
luminescence=bottom+(top-bottom)/(1+10^(logIC50−log[cpd])−hill))
[cpd] is the compound concentration tested. hill is the Hill-coefficient. Bottom and top are the asymptotic minimum and maximum of the curve. Combination Index (CI) determination. The CI is one of the most widely used quantitative indications of synergy. The CI evaluates the concentrations needed to achieve a fixed-effect. A CI of below 1 indicates synergy.
CI is defined for a certain percentage cell viability (V), which is the signal related to a non-exposed control: V=100%×luminescencetreated,t=72h/luminescenceuntreated,t=72h. The concentrations of the two compounds cpd1 and cpd2 needed to reach a certain percentage cell viability V in combination are then compared to the concentrations needed as single agents:
IC50,cpd1 would signify the IC50 of cpd1 alone. The CI is labelled by %-effect, to follow conventions, so CI75 signifies the CI at 25% viability Curve shift analysis. This analysis provides a visual confirmation of synergy^1. The concentrations of the mixtures of compounds 1 and 2 (cpd1 and cpd2), and the single agents, were expressed in terms of IC50 equivalents (in ‘units’ of IC50):
The dose-response signal was fitted by a 4-parameter logistics curve using XL-fit 5 (IDBS software)

[3] = test system: RL; test: Oncolines cell proliferation assay (ATP luminescence); assay type: cell-based; conditions: non-Hodgkin's lymphoma, B lymphoblast
Procedure: (§2) Cell preparation. All cell lines have been licensed from the American Type Culture Collection (ATCC) Manassas, Va. (US). Master and Working Cell banks (MCB and WCB) were prepared by subculturing in ATCC-recommended media and freezing according to ATCC recommended protocols (www.atcc.org).
(§3) Compound preparation. Test compounds were prepared as stock solutions in DMSO or aqueous buffers as appropriate and serially diluted to obtain a dilution series.
(§4) Cell proliferation assay. Cell proliferation was assessed using a commercially available luminescence assay using ATP as the endpoint.
(§5) Controls. t=0 signal. On a parallel plate, 45 μl cells were dispensed and incubated in a humidified atmosphere of 5% CO2 at 37° C. After 24 hours 5 μl DMSO-containing Hepes buffer and 25 μl ATPlite 1Step™ solution were mixed, and luminescence measured after 10 minute incubation (=luminescencet=0).
(§6) Reference compound. The IC50 of the reference compound doxorubicin is measured on a separate plate. The IC50 is trended. If the IC50 is out of specification (0.32-3.16 times deviating from historic average) the assay is invalidated.
as §1
(§7) Maximum signals. For each cell line, the maximum luminescence was recorded after incubation until t=end without compound in the presence of 0.4% DMSO (=luminescenceuntreated,t=end).
(§8) IC50 were calculated by non-linear regression using IDBS XLfit. The percentage growth after incubation until t=end (%-growth) was calculated as follows: 100%×(luminescencet=end/luminescenceuntreated,t=end). This was fitted to the ^10log compound concentration (conc) by a 4-parameter logistics curve: %-growth=bottom+(top−bottom)/(1+10^(logIC50-conc)*hill)) where hill is the Hill-coefficient, and bottom and top the asymptotic minimum and maximum cell growth that the compound allows in that assay.
(§9) NCI60 parameters. The LD50, the concentration at which 50% of cells die, is the concentration where luminescencet=end=½×luminescencet=0h. […] This is concentration associated with the signal: ((luminescenceuntreated,t=end−luminescencet=0)/2)+luminescencet=0.
(§10) Curve fitting. […] The hill was fixed on −6 when the software calculated a lower value. […] Incidentally, when technical failures were likely, concentration points were knocked out.
(§11) The special volcano plot of FIG. 9 relates compound sensitivity (as measured by ^10logIC50) to the presence of cancer hotspot mutations. […] The hotspot mutations were derived from statistical analyses of the recurrence patterns of mutations and copy number alterations in patients through separate studies. Axes and statistical analyses are identical to the volcano plot of FIG. 8. The cutoff p-level for significance is 0.32. […] Effect20 For determination of the effect of the compound on the activity of other anti-cancer agents in SynergyScreen™ experiments, a low, fixed concentration is used, corresponding to the concentration at which cell growth is inhibited by 20%.

[4] = test system: MOLT-4; test: as above; assay type: cell-based; conditions: MOLT-4, acute lymphoblastic leukemia (ALL)
Procedure: as §2, §3, §4, §5, §6, §1, §7, §8, §9, §10, §11

[5] = test system: HT; test: as above; assay type: cell-based; conditions: diffuse mixed lymphoma, B lymphoblast
Procedure: as §2, §3, §4, §5, §6, §1, §7, §8, §9, §10, §11

[6] = test system: MV-4-11; test: as above; assay type: cell-based; conditions: MV-4-11, biphenotypic B myelomonocytic leukemia
Procedure: as §2, §3, §4, §5, §6, §1, §7, §8, §9, §10, §11

[7] = test system: U-87-MG; test: as above; assay type: cell-based; conditions: glioblastoma, brain
Procedure: as §2, §3, §4, §5, §6, §1, §7, §8, §9, §10, §11

[8] = test system: DB; test: as above; assay type: cell-based; conditions: large cell lymphoma, B lymphoblast
Procedure: as §2, §3, §4, §5, §6, §1, §7, §8, §9, §10, §11

[9] = test system: HL-60; test: as above; assay type: cell-based; conditions: HL-60, acute promyelocytic leukemia
Procedure: as §2, §3, §4, §5, §6, §1, §7, §8, §9, §10, §11

[10] = test system: THP-1; test: as above; assay type: cell-based; conditions: THP-1, acute monocytic leukemia
Procedure: as §2, §3, §4, §5, §6, §1, §7, §8, §9, §10, §11

[11] = test system: KG-1; test: as above; assay type: cell-based; conditions: KG-1, acute myelogenous leukemia (AML)
Procedure: as §2, §3, §4, §5, §6, §1, §7, §8, §9, §10, §11

[12] = test system: HT-1080; test: as above; assay type: cell-based; conditions: HT-1080, fibrosarcoma
Procedure: as §2, §3, §4, §5, §6, §1, §7, §8, §9, §10, §11

[13] = children who received the drug; cited from earlier work
[14] = PEGylated enzyme relative to unmodified enzyme; cited from earlier work
[15] = in vivo; cited from earlier work
[16] = pegcrisantaspase with ABT-747, average Combination Index of the mixtures at ED50, HL-60

Molecule | tolerability [1] | Curve shift ([2]; pegcrisantaspase with ABT-747, HL-60, leftward shift indicates synergy) | Average CI value 1:1, 1:2 and 2:1 [2, 16] | Average CI value 1:1, 1:5 and 5:1 [2, 16] | Average CI value 1:1, 1:10 and 10:1 [2, 16] | IC50 (IU/mL) ([2]; single agent, HL-60, 72 hours) | maximal effect ([2]; single agents, dose-response curves of FIG. 3, HL-60) [%] | Effect20 (concentration at which cell growth is inhibited by 20%) [3] [IU/mL] | Effect20 (concentration at which cell growth is inhibited by 20%) [4] [IU/mL] | Effect20 (concentration at which cell growth is inhibited by 20%) [5] [IU/mL] | Effect20 (concentration at which cell growth is inhibited by 20%) [6] [IU/mL] | Effect20 (concentration at which cell growth is inhibited by 20%) [7] [IU/mL] | Effect20 (concentration at which cell growth is inhibited by 20%) [8] [IU/mL] | Effect20 (concentration at which cell growth is inhibited by 20%) [9] [IU/mL] | Effect20 (concentration at which cell growth is inhibited by 20%) [10] [IU/mL] | Effect20 (concentration at which cell growth is inhibited by 20%) [11] [IU/mL] | Effect20 (concentration at which cell growth is inhibited by 20%) [12] [IU/mL] | children who had an allergic reaction [13] | in vitro activity compared to the unmodified L-asparaginase [14] | patients antibody-positive [15]
B1 | well tolerated | yes | 0.26 | 0.29 | 0.33 | 0.070 | 88 | 0.037 | 0.00019 | 0.033 | 0.0088 | 0.057 | 0.059 | 0.00028 | 0.012 | 0.00018 | 0.013 | – | – | –
B2 | – | – | – | – | – | – | – | 0.37 | 0.00019 | 0.28 | 0.26 | 0.4 | 0.47 | 0.0003 | 0.31 | 0.0001 | 0.00025 | 30-41% | approximately 50% | –
B3 | – | – | – | – | – | – | – | – | – | – | – | – | – | – | – | – | – | – | – | 30-50%

From patent US20230173042A1, “METHODS OF TREATMENT WITH ASPARAGINASE” (JAZZ PHARMACEUTICALS IRELAND LTD., priority 2017, published 2023)
